Assay: Synthesis of N-capryloylamino acid using washed microbial cell suspension or microbial cell suspension expressing acylamino acid synthetase
Assay type: cell-based, E coli BL21(DE3)
Settings: UV 210 nm
Description: BL21(DE3)/pET-28a-AtGH3-6, BL21(DE3)/pET-28a-OsGH3-8, BL21(DE3)/pET-28a-AtGH3-5, and BL21(DE3)/pET-28a were inoculated to 100 mL of LB medium containing 25 mg/L of kanamycin in a Sakaguchi flask, respectively and cultured with shaking at 37° C. When OD610 reached 0.6, 1 mM IPTG was added, and culturing with shaking was continued at 15° C. for 24 hours.
BL21(DE3)/pET-28a-CfHP was inoculated to 100 mL of LB medium containing 25 mg/L of kanamycin in a Sakaguchi flask, and cultured with shaking at 37° C. When OD610 reached 0.2, 1 mM IPTG was added, and culturing with shaking was continued at 15° C. for 24 hours.
After completion of the culture, microbial cells were collected from 5 mL of the resulting culture medium by centrifugation and washed with 20 mM Tris-HCl (pH 7.6) followed by being suspended in 1 mL of 20 mM Tris-HCl (pH 7.6) to use as a washed microbial cell suspension.
After completion of the culture, 15 mL of the resulting culture medium was concentrated to 3 mL by centrifugation to use as a microbial cell suspension.
0.3 mL of a reaction solution containing 33.3 mM Tris-HCl, 3.3 mM amino acid, 3.3 mM sodium caprylate, 6.7 mM or 0 mM ATP, 6.7 mM MgCl2, 0.7 mM DTT, 30 μg of the microbial cell suspension (cell free extract solution, washed microbial suspension, microbial suspension), pH 8.0 was incubated at 25° C. for 24 hours. As the amino acid, L-Asp was used in AtGH3-6, OsGH3-8, AtGH3-5, and Gly or L-Ala was used in CfHP. After completion of the reaction, 0.8 mL of the reaction stop solution (1% (v/v) phosphoric acid, 75% (v/v) methanol) was added, and the mixture was filtrated through the filter followed by being subjected to the UPLC-MS analysis to detect a signal of a molecular weight corresponding to the N-capryloylamino acid. The condition for the UPLC-MS analysis is as described in Example 2. As a result of the UPLC-MS analysis, the signal of the molecular weight corresponding to the appropriate N-capryloylamino acid was confirmed in the reaction solution using the microbial cell suspension and the like shown in Table 8 below.
As a result of quantifying the produced N-acylamino acid by detection at UV 210 nm, when Gly was used as the substrate in CfHP, 2.8 mM, 2.2 mM and 2.6 mM N-capryloylamino acids were detected in the washed microbial cell suspension, the microbial cell suspension (in the presence of ATP) and the microbial cell suspension (in the absence of ATP), respectively. When L-Ala was used as the substrate in CfHP, 2.4 mM, 0.9 mM and 1.0 mM N-capryloylamino acids were detected in the washed microbial cell suspension, the microbial cell suspension (in the presence of ATP) and the microbial cell suspension (in the absence of ATP), respectively.

B1: CfHP: hypothetical protein from Cystobacter fuscus (GH3 protein), His-tagged (protein, listed as Cystobacter fuscus)
chain: MQAAGRRDKQRFIEQTRHVARVNVDTLRAILQHNRDTDFGRRHGFASLRTVEDFQRALPVSTYEPFRPYMERIARGEQNVLTADRVEYLGITSGTTGQRKLLPVSRPHLENMRRTMMIGRAVVTEKVPAARRPSRGMILMNAVLRERSEGGLLTGALTAISTHSMGRAASFAFTSPPEAFRLRKHADALYLHLLFGLRERELGTLMAPFASGLLDMVHLLERRGADLVDDIARGVLRPELDLEPEQRRLLQSRLLPDPERAREVSQALEQGPHGLLRRLWPRLAYVSSITGASFSLYTRQLTPYLEGVPLSAASYVSTEGILGVPLELEQAVYCLMVGMAFFEFIPERELDAESPTTLLPEQLVEGEAYEVVLTTQAGLYRYRLGDVVRIVGRYHEAPLMEFLYRRGALLNLMGEKTSEHAARLALEQALATEGLLPADYSVVEETETLPGRYALFVELQEGARPQGAPEQLSRALEEALCRTNPFYEVIRRSERLGAAQLHRVEPGTFQALRDVLVQRGASPTQVKVPRVVRDAELQGLLRQRRVTG
modifications: His-tag
notes: hypothetical protein from Cystobacter fuscus (GH3 protein), His-tagged
N-capryloylamino acid detected (Gly as substrate, microbial cell suspension (in the absence of ATP)): 2.6 mM | N-capryloylamino acid detected (Gly as substrate, microbial cell suspension (in the presence of ATP)): 2.2 mM | N-capryloylamino acid detected (Gly as substrate, washed microbial cell suspension): 2.8 mM | N-capryloylamino acid detected (L-Ala as substrate, microbial cell suspension (in the absence of ATP)): 1.0 mM | N-capryloylamino acid detected (L-Ala as substrate, microbial cell suspension (in the presence of ATP)): 0.9 mM | N-capryloylamino acid detected (L-Ala as substrate, washed microbial cell suspension): 2.4 mM
